Experiment: yeast display, Sf9 membrane polyspecificity reagent, FACS + sequencing; frameworks hold sequencing errors
Procedure, shortened: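 Synthetic nanobody libraries on Saccharomyces cerevisiae BJ5465 were galactose-induced for 36–48 hours, stained 1 hour at 4 °C with 10% biotinylated, detergent-solubilized Sf9 membrane reagent and enriched on streptavidin microbeads. FACS then separated cells into low and high (top ~1%) gates by anti-HA (expression) and streptavidin (reagent binding) fluorescence. Genes were colony-PCR amplified, MiSeq 2 × 250 sequenced and CDR-length filtered. A clone's polyreactivity label is that of its gate of origin.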

Row | Sequence | polyreactivity (PSR sort gate)
1 | QDQLVESGGGLVQAGGSLRLSCAASGRTFLRYTMGWYRQAPGTETELVADITNGGTRTYYADSVKGRFTFSRDYAKNTVYLQMNRLKPEDTAVYYCGARVRYTANYDYWGQGTQVTVSS | high polyreactivity
2 | QVQLVESGGGLVQAGGSLRLSCSASGITFWKYAMGWYRQAPGKERELVASISGRGGSTYYADSVKGRFTISRYKANNTVYLQMNSLKPEDTAVYYCAKYPGISGYNYWGQGTQVTVSS | high polyreactivity
3 | QVQLVESGGGLVQAGGSLRLSCAASGRTSGNYAKGWNRQAPGKERELVAAIRYSGSSTFYAESVKGRFTISRDSAKNSVYLQMNSLKPEDTGVYYCARDIRRKGFRYDYWGQGTQVTVSS | high polyreactivity
4 | QVQLLESGGGLVQAGGSLRLSCAASGIIFRVYAMGWYRQAPGKERELVATITWSGGSTFYADSVKGRFTISRDNAKNTVYLQMNSLKPEDTAVYYCAKRGYVRSGLGRPYADDYWGQGTQVTVSS | low polyreactivity
5 | QVQLVESGGGLVQAGGSLRLSCAASGFTFHWYAMGWYRQAPGKERELVAAISWSGGSTYYADSVKGRFTISRDNAKNTVYLQMNSLKPEYTAVYYCNAGVYWPGEFDYWGQGTQVTVSS | high polyreactivity
6 | QVQLVESGGGLVQAGGSLRLSCAASGSIFTVNAMGWYRPAPAKERELVATISDTGGSTYADSVKGRFTISRYNAKNTVYLQMNSLKPEDTAVYYCNADYYVRRYPPYDYWGQGTQVTVSS | low polyreactivity
7 | QVQLVESGGGLVQAGGSLRLSCAASGSIFRRNAMGWYRQAPAKERDLVAAISVRGGSTYYAYSVKGRFTISRDLAKNTVYLQMISLKPEDTAVYYCAADEFDDYDWYRGYDSTYDYWGQGTQVTVST | low polyreactivity
8 | QVQLVESGGGLVQAGGSLRLICAASGRTFYYYAMGWYRQAPGKERELVAAISKDGGRTYYADSVKGRFTISRDNAKHTVYLQMKSLKPEDTAVYYCAARYSSSRGLSSEYWGQGTQVTVSS | high polyreactivity
9 | QVQLVESGGGLVQAGGSLRLSCAASGLTLRRYAMGWYRQAPGKEREMVASINSGTSTKYADSVKGRFTISRDNAKNTVYLQMNSLKPEDTAVYYCGAAGYFPTAGSRRAYYYWGQGTQVSVSS | high polyreactivity
10 | QVQLVESGGGLVQAGGSLRLSCPASGLIFLHNAMGWYRQAPGKERELVATISLSGGSTYADSVKGRFTISRDNAKNTVYLQLYSLKPEDTAVYYCAAGGQYYIIRYDYWGQGTQVTVSS | low polyreactivity
11 | QVQLVESGGGLVQAGGSLRLSCAASGSIFAFNAMGWYRQAPGKERELVAAITSGGNTYYADSVKGRFTISRDNAKNTVYLQMNSLKPEDTAVYYWATVFSVQGWYFGMNYWGQGTQVTVSS | low polyreactivity
12 | QVQLVESGGGLFQAGGSLRLSCAASASIIPHNAMGWYRQAPGKERELVASITSRGGITYYADSVKGRFTISRDNAKNTVYLQMNSLKPEDTAVYYCAKDHAYTSAPHQYASEYYYWGQGTQVTVSS | low polyreactivity
13 | QVQLVDSGGGLVQAGGSLRLSCAASGSTFALYAMGWYRQAPGKERELVAAITWSGTGTYYADSVKGRFTISRDNAKNTVYLQMNSLKPEDTAVYSCNAEYWWWGLGNDYWGQGTQVTVSS | low polyreactivity
14 | QVQLVESGGGLVQAGGSLRLSCAASGITLRYYTMGWYRQPPGKERELVADISYRGGSTTYADSVKGRFTISRDNAKNTVYLQMNSLKPEDTAVYYCNARKRTFPSRSIGGDYWGQGTQVTVSS | high polyreactivity
15 | QVQLVESGGGLVQAGGSLRLSCAASGRTFRLYAMGWYRQAPGKERELVAAISARGSSTYYADSVKGRFTISRDNAKNTVYLQMNSLKPEDTAVYYCAAKRSYPYGSGYWGQGTQVTVSS | high polyreactivity
16 | QVQLVESGGGLVQAGGSLRLSCAASGNTFGFNTMGWYRQAPGKERELVAAISKSGTRTFYADSVKGRFTISRDNAKNTVYLQMNSLKPEDTAVYYCAAVAKGGNWPAQGGGHDYWGQGTQVTVSS | high polyreactivity
17 | QVQLVESGGGLVQAGGSLRLSCAASGSIFKTYAMGWYRQAPGKERELVAAITSSGGSTYYADSVKGRFTISRDNAKNTVYLQMNSLKPEDTAVYYCNARYWGYWGDHYDYWGQGTQVTVSS | high polyreactivity
18 | QVQLVESGGGLVQAGGSLRLSCAASGSTFAYNAMGWYRQAPGKERELVAAISWSGGTTYYADSVKGRFTISRDNAKNTVYLQMNSLKPEDTAVYYCAADVYLNRRQRMYYWGQGTQVTVSS | high polyreactivity
19 | QGQLVESGGGLVQAGGSLRLSCAASGGIFGNYAMGGYRQAPGKERELVAVIDSSDGSTHYADSVKGRFSISRDNAKTTVYLQINSLKAEDTAVYYCATLGFWNYWTFDYWGQGTQVTVSS | low polyreactivity
20 | QVHLVESGGGLVQAGGSLRISCAAYGRTFRYYAMGCYRQAPAKDRELVAGISSSGDRTYFADSVKGRFTISRDTAKNTVYLQMNSLKPEDTAVYYCAADRGARGDYYWGQGTQVTVSS | high polyreactivity
21 | QVQLVESGGGLVQAGGSLRLSCAASGRIYRSYAMGWYRQAPGKERDLVAAITKSGGGTYYADTVKGRYTISRVNAKNTVYLQMNSLNPEDTAVYYCGARGHGGYYYWGQGTQVTVSS | high polyreactivity
22 | QVQLVESGGRLVQAGGSLRLSCAASGYIFYPNVMGWYRQAPGKERELVAAISSSGGSTYYADSVKGRFTISRDNAKNTVYLQMNSLKPEDTAVYYCAARSLRYADYRSSYQKDMYYWGQGTQVTVSS | low polyreactivity

Row | Sequence | polyreactivity (PSR sort gate)
23 | QVQLVESGGGLVQAGGSLRLSCAASGITFRYYAMGWYRQAPGKERELVAAITGNGGGTYADSVKGRFTISRDNAKNTVYLQMNSLKPEVTAVYYCAADEPGLSWYDSYRYPDYGYDYWGQGTQVTVSS | low polyreactivity
24 | QDQLVESGGGLVQAGGSLRLSCAASGFILGLNAMGWYRQAPGKEREFVADISWSGDSTYYADSVKGRFTISRDNAKNTVYLQMNSLKPEDTAFYYCAAVPYYNWGYYYWGQGTQVTVSS | low polyreactivity
25 | QVQLVESGGGLVQAGGSLRLSCAASGRTFRAYAMGWYRQAPGKERELVAAITASGTSTYYADSVKGRFTISRDNAKNTVYLQMNSLKPEDTAVYYCARGSWRHFRLYGFDYWGQGTQVTVSS | low polyreactivity
26 | QVQLVESGGGLVQAGGSLRLSCAASGRTFKDYAMGWYRQAPGKERELVAAISWSGGDTYYADSVKGRFTISRDNAKNTVYLQMNRLKPEDTAVYYCNADPSGVFFYSLEFDYWGQGTQVTVSS | low polyreactivity
27 | QVQLVESGGGLVQAGGSLRLSCAASGFTFGFNDMGWYRQAPGKERELVAAITIGGTTNYADSVKGRFTISRDNAKNTVYLQMNSLKPEDTAVYSCAADTRVVYDEDYWGQGTQVTVSS | low polyreactivity
28 | QVQLLESGGGLVQAGGSLRLSGAASGRIFRWYAMGWYRQAPGKEREFVAAITSSGGSTYYADSVMGRFTISRDNAKNTVYLQMNSLKPDDTAGYYCAALVYLGGSYSRGYDWGQGTQVTVSS | high polyreactivity
29 | QVQLVESGGGLVQAGGSLRLSCAASGIFYVYAMGWYRQAPGKERELVAAISSDGSTYYADSVKGRFTISRDNAKNTVYLQMNSLKPEDTAVYYCAAVWYWTQDYDYWGQGTQVTVSS | low polyreactivity
30 | QVQLVESGGGLVQAGGSLRLSCAASGRIFDQYAMAWYRQAPGKERELVATISGSGGSTYYADSVKGRFTISRDNAKNTVYLQMNSLKPEDTAVYYCAAVSVSSWYDYWGQGTQVTVSS | low polyreactivity
31 | QVQLVESGGGLVQAGVSLRLSCAASGGIFGNYAMGGYRQAPAKERELVAAINGGTSTYYADSVKGRFTISRDNAKNTVYLQMNCLKPEDTAGYYCAADWRYLYYALDYWGQGTQVTVSS | low polyreactivity
32 | QLQLVESGGGLVQAGGSLRLSCAASGSIFRVYAMGWYRQARGKERELVAAISSSGVRTSYADSVKGRFTISRDNAKNTVYLQMNSLKPEDTAVYYCADRYPYGYYHWGQGTQVTVSS | high polyreactivity
33 | QVQLVESGGGLVQAGGSLRLICAASGNTLGPYAMGWYRQAPGKERELVAAITWSGGITDYADSVKGRFTISRDNAKNTVYLQMNSLKPEDTAVYYCNAGPSLGIFQGTSVGLRYDYWGQGTQVTVSS | low polyreactivity
34 | QVQLVESGGGLVQAGGSLRLSCAASGSTFYEYAMGWYRQAPGKERELVAAISSGGSTYYADSVTGRFTISRDNAKNTVYLLMNSLKPEDTAVYYCNADCQTYCGEYDYWGQGTQVTVSS | low polyreactivity
35 | QVQLVESWGGLVQAGGTLSLSCADSGLIFYFYDRGWYRQAPGKESEFVATISSTGGSTYYADSVKGRFTISRDNAKNTVYLQMNSVKPEDTAVYVCADRGWFPGFRYDYWGQGTQVTVSS | low polyreactivity
36 | QVQLVESGGGLVQAGGSLRLICAASGRTFGVYSMGWYRQAPGKERELVAAISATGGSTYYADSVKGRFTISRDNAKNTVYLQMNSLKPEDTAVYYCARGGTTLYWGQGTQVTVSS | high polyreactivity
37 | QVQLVESGGGLVQAGGSLRLSCAASGFIFGGYAMGWYRHAPRKERELVAAISRSGGSTYYADSVKGRFTISRDNAKNTVYLQMNSLKPEDTAVYYCNAVPRRQGFNYWGQGTQVSVSS | high polyreactivity
38 | QVQLVESGGGLVQAGGSLRLSCAASGFTLGDNAMGWYRQAPGTERELVAAISASGGSTYYADSVKGRFTISRDNEKNTVYLQMNSLKPEDTAVYYCILHGYKYDYWGQGTQVTVSS | low polyreactivity
39 | QVQLVESGGGLVQAGGSLRLSCAASGRTFHINAMGWYRQAPGKERELVAGINSGGSTNYADSVKGRFTISRDNAKNTVYLQMNSLKPEDTAVYYCNAVVKLKYLYYYVEHYYWGQGTQVTVSS | low polyreactivity
40 | QVQLVESGGGLVQAGGSLRLSCAASGRTFSYAMGWYRQAPGKERELVAAITSGGSTYYADSVKGRFTISRDNAKNTVYLQMNSLKPEDTAVYYCAKLLGNYARYDYWGHGTQVTVSS | high polyreactivity
41 | QVQLVESGGGLVQAGGSLRLSCAASGSTFVSNAMGWYRQAPGKERELVAAISKGDGNTYYADSVKGRFTISRDNAKNTVYLQMNSLKPEDTAVYYCAATYHYYSRWYDYWGQGTQVTVSS | high polyreactivity
42 | QVQLVESGGGLVQAGGSLRLSCAASGSTFGSYAMGWYRQAPGKERELVAVITGGGDTNYADSVKGRFTISRDNAKNTVYLQMNSLKPEDTAVYYCAAEGSFYRYHVGSDYWGQGTQLTVSS | low polyreactivity
43 | QVQLVESGGGLVQAGGSLRLSCAASGSIFVGNAMGWYRQAPAKERELVDTISWSGGSTYYADSVKGRFTISRDNAKNTVYVQMTSLKPEDTAVYYCAKTPYRRYRYGCYTYRTYDYWGHGTQVTVSS | low polyreactivity
